{"source": "patent US10363323B2", "about": "“Hydrophobic modified peptides for liver specific diagnosis” (RUPRECHT-KARLS-UNIVERSITAT HEIDELBERG, priority 2011, dated 2019)", "key": {"[1]": {"test_system": "liver of a WAG/Rji rat", "conditions": "400 nmol/kg i.v., five minutes post injection, WAG/Rji rat bearing CC531 colon carcinoma", "procedure": "The rats were orthopically injected with 1×10^6 syngenic colon carcinoma cells (CC531 cells) 10 days prior to the measurements. At the day of measurement the rats received the peptide in a concentration of 400 nmol/kg body weight. During the experiments the rats were anaesthetised by isoflurane and kept at 37° C."}, "[2]": {"experiment": "Stability in the serum", "format": "in vitro ADME", "conditions": "37° C., non-inactivated human serum from healthy donors, over the indicated period", "procedure": "The detection of degradation products was conducted by purification of the peptides by using HPLC affinity chromatography and subsequent radioactivity determination was performed on a gamma counter at the indicated time points. The correct mass of the radioactive peak fractions eluted from the column was confirmed by mass spectrometry (data not shown)."}}, "data": [{"smiles": "CCCCCCCCCCCCCCCCCC(=O)N[C@@H](CCCCNC(=O)CN1CCN(CC(=O)O)CCN(CC(=O)O)CCN(CC(=O)O)CC1)C(=O)N[C@@H](CCCCNC(=O)CN1CCN(CC(=O)O)CCN(CC(=O)O)CCN(CC(=O)O)CC1)C(=O)N[C@@H](CCCCNC(=O)CN1CCN(CC(=O)O)CCN(CC(=O)O)CCN(CC(=O)O)CC1)C(=O)N[C@@H](CC(N)=O)C(=O)N[C@@H](CC(C)C)C(=O)N[C@@H](CO)C(=O)N[C@H](C(=O)N[C@@H](CO)C(=O)N[C@@H](CC(N)=O)C(=O)N1CCC[C@H]1C(=O)N[C@@H](CC(C)C)C(=O)NCC(=O)N[C@@H](Cc1ccccc1)C(=O)N[C@@H](Cc1ccccc1)C(=O)N1CCC[C@H]1C(=O)N[C@@H](CC(=O)O)C(=O)N[C@@H](Cc1c[nH]cn1)C(=O)N[C@@H](CCC(N)=O)C(=O)N[C@@H](CC(C)C)C(=O)N[C@@H](CC(=O)O)C(=O)N1CCC[C@H]1C(N)=O)[C@@H](C)O", "values": [{"measurement": "enrichment in the liver (PET image)", "setting": "[1]", "result": "Specific enrichment"}, {"measurement": "degradation in non-inactivated human serum (HPLC, gamma counter)", "setting": "[2]", "result": "Only radioactive decay but no cleavage was observed"}]}]}
